Source: PMC10318394

T1: phospholamban (PLN), wild type, in mouse heart (mouse), P61014
T1 chain: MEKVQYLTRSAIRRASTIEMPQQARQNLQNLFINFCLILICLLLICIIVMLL

T2: synthetic full-length PLN, P61014
T2 chain: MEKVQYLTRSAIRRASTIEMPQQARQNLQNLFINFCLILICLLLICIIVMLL


What was measured:
[1] = target: T1, phospholamban (PLN), wild type, in …; assay: SDS-PAGE and western blot; conditions: remark: other sources report otherwise
[2] = target: T2, synthetic full-length PLN, P61014; assay: SDS-PAGE; conditions: remark: other sources report otherwise

Row | Binder | stoichiometry N [1] | stoichiometry N [2]
1 | phospholamban (PLN), wild type, in mouse heart, P61014 1-52 (natural protein) MEKVQYLTRSAIRRASTIEMPQQARQNLQNLFINFCLILICLLLICIIVMLL | 5 | 
2 | synthetic full-length PLN, P61014 1-52 (natural protein) MEKVQYLTRSAIRRASTIEMPQQARQNLQNLFINFCLILICLLLICIIVMLL |  | 5
